Target: HLA-A2 on HLA-A2 positive peripheral blood mononuclear cells (human)
Test: cell-based or functional assay

B1: HLA-A2 CAR (anti-HLA-A2 chimeric antigen receptor: CD8 leader, scFv directed against HLA-A2, CD8 alpha linker and transmembrane domain, CD28 activation domain, … (receptor)
chain: SQVQLQQSGPELVKPGASVKMSCKASGYTFTSYHIQWVKQRPGQGLEWIGWIYPGDGSTQYNEKFKGKTTLTADKSSSTAYMLLSSLTSEDSAIYFCAREGTYYAMDYWGQGTSVTVSSGGGGSGGGGSGGGGSDVLMTQTPLSLPVSLGDQVSISCRSSQSIVHSNGNTYLEWYLQKPGQSPKLLIYKVSNRFSGVPDRFSGSGSGTDFTLKISRVEAEDLGVYYCFQGSHVPRTFGGGTKLEIKRTTTPAPRPPTPAPTIASQPLSLRPEACRPAAGGAVHTRGLDFACDIYIWAPLAGTCGVLLLSLVITLYCRSKRSRLLHSDYMNMTPRRPGPTRKHYQPYAPPRDFAAYRSRVKFSRSADAPAYQQGQNQLYNELNLGRREEYDVLDKRRGRDPEMGGKPRRKNPQEGLYNELQKDKMAEAYSEIGMKGERRRGKGHDGLYQGLSTATKDTYDALHMQALPPR
CD69 cell surface expression on Tregs transduced with TX135 (PGK promoter), 24 h co-incubation, flow cytometry: 3.7 fold
CD69 cell surface expression on Tregs transduced with pTX137 (EF1a promoter), 24 h co-incubation, flow cytometry: < 2 fold
CD69 cell surface expression on Tregs transduced with pTX138 (EF1a promoter + WpreMut6), 24 h co-incubation, flow cytometry: < 2 fold
